Results published in patent publication US20180236071A1 (ACTICOR BIOTECH, published 2018).

T1: Soluble GPVI-Fc (human, UniProt Q9HCN6 21-269)
T1 construct: also called soluble human GPVI
T1 chain: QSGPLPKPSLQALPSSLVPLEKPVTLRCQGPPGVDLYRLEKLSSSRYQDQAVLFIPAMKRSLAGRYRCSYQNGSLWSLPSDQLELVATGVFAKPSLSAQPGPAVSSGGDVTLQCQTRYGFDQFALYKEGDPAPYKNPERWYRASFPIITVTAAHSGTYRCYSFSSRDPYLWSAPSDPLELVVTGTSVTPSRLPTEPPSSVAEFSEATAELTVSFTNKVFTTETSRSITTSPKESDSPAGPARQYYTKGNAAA

T2: human Glycoprotein VI (GPVI) on platelets (human, UniProt Q9HCN6 21-339)
T2 chain: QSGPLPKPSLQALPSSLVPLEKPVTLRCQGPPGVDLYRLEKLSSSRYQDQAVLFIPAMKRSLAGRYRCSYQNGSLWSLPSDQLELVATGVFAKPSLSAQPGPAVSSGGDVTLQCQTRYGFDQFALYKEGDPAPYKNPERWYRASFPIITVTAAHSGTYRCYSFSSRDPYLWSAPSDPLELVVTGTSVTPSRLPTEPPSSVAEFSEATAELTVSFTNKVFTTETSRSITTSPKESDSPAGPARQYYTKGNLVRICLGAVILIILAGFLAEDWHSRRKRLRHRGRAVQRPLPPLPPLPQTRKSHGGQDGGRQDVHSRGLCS

T3: murine GPVI (mouse, UniProt P0C191 22-265, limits assumed)
T3 construct: also called mouse GPVI
T3 sequence (looked up): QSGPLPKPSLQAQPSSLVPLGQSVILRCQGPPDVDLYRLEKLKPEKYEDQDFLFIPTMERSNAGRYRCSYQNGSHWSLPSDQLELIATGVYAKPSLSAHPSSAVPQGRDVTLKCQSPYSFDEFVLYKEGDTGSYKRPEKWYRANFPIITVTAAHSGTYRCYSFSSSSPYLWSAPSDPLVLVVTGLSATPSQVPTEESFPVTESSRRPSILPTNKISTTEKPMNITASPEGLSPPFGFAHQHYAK


Experiments:
Soluble GPVI-Fc = molecular target: T1, Soluble GPVI-Fc; assay: SPR, BIAcore 2000, GPVI-Fc immobilised, Fab in flow, PBS pH 7.4
Procedure: Soluble GPVI-Fc (produced as described in Example 2) was immobilized in acetate buffer 10 mM pH 6 at a dose ranging from 960 to 1071 RU (corresponding about 6.4 to 7.15 fmol/mm²) onto a Carboxy-Methyl Dextran CMS sensor chip using the amine coupling method (Wizard procedure). The protein is then passed over the immobilized GPVI-Fc in PBS pH 7.4 (10 mM phosphate, 138 mM NaCl, 2.7 mM KCl, pH 7.42 at 25.4° C.) at a flow rate of 20 μL/min at 25° C. Kinetic constants (KA, KD, kₒₙ, koff) and affinity are determined using BIAevaluation version 3.0 software, by fitting data to binding model. PBS pH 7.4 is the running buffer.

[1] = molecular target: T2, human Glycoprotein VI (GPVI) on …; assay: cell-based or functional assay
murine GPVI = molecular target: T3, murine GPVI; assay: not described

Row | Binder | Ka (Soluble GPVI-Fc) [M⁻¹] | Kd (Soluble GPVI-Fc) [nM] | koff (Soluble GPVI-Fc) [s⁻¹] | kon (Soluble GPVI-Fc) [M⁻¹ s⁻¹] | mean IC50, intensity of collagen-induced platelet aggregation [1] [µg/mL] | mean IC50, velocity of collagen-induced platelet aggregation [1] [µg/mL] | binding result (murine GPVI)
1 | ACT006 antibody (humanized Fab fragment) (Fab, V domains shown) VH: QVQLVQSGAEVKKPGASVKVSCKASGYTFTSYNMHWVRQAPGQGLEWMGGIYPGNGDTSYNQKFQGRVTMTRDTSTSTVYMELSSLRSEDTAVYYCARGTVVGDWYFDVWGQGTLVTVSS VL: DIQMTQSPSSLSASVGDRVTITCSASQSLENSNGNTYLNWYQQKPGKAPKLLIYRVSNRFSGVPSRFSGSGSGTDFTLTISSLQPEDFATYYCLQLTHVPWTFGQGTKVEIKR | 1.4e+08 | 7.3 | 0.000476 | 66500 | – | – | –
2 | ACT017 antibody (humanized Fab fragment) (Fab, V domains shown, Coupled to Alexa488 for the flow cytometry assay; also called ACT17; humanized Fab ACT017) VH: QVQLVQSGAEVKKPGASVKVSCKASGYTFTSYNMHWVRQAPGQGLEWMGGIYPGNGDTSYNQKFQGRVTMTRDTSTSTVYMELSSLRSEDTAVYYCARGTVVGDWYFDVWGQGTLVTVSS VL: DIQMTQSPSSLSASVGDRVTITCRSSQSLENSNGNTYLNWYQQKPGKAPKLLIYRVSNRFSGVPSRFSGSGSGTDFTFTISSLQPEDIATYYCLQLTHVPWTFGQGTKVEITR | 2.57e+08 | 4.1 | 0.000232 | 59700 | 3.2 | 2 | no binding
